We go through one molecule from patent publication US20060149521A1 (University of California, published 2006).

The target in one assay is T1, hTRβ1 E457K, full-length (human, UniProt P10828 1-461, [35S]-Met labelled (in vitro translated)).
T1 construct: range 1-461
T1 sequence (looked up): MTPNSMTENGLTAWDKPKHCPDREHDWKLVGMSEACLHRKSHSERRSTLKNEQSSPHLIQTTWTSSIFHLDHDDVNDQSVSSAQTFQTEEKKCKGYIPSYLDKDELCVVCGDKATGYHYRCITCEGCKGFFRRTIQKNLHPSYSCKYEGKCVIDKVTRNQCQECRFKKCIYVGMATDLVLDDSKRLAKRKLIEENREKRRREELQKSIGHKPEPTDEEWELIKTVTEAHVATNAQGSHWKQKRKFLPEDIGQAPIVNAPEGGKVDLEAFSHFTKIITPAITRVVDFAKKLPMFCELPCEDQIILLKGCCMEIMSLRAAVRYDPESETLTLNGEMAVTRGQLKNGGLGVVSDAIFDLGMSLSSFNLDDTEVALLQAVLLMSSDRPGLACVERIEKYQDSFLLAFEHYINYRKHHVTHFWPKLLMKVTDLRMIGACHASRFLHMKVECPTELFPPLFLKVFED
Briefly: GST-GRIP1 pull-down of [35S]-hTRβ1 with T3.

In another assay the target is T2, hTRβ1 L454R, full-length (human, UniProt P10828 1-461, [35S]-Met labelled (in vitro translated)).
T2 construct: range 1-461
T2 sequence (looked up): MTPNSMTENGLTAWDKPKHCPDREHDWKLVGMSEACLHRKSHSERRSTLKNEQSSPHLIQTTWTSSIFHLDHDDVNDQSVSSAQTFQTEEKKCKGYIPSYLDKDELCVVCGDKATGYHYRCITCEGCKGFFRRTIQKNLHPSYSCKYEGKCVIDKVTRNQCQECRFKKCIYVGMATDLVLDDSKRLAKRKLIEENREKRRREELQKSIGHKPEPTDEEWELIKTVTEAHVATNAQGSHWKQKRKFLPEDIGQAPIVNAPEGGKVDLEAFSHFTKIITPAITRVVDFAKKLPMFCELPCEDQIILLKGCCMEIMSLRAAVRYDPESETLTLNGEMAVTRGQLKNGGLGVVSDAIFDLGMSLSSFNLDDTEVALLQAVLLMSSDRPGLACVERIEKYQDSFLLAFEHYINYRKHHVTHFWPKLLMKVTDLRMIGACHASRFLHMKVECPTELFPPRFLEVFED
In words: GST-GRIP1 pull-down of [35S]-hTRβ1 with T3.

B1: GST-GRIP1 (GRIP1 amino acids 721-1121) (other, mouse, UniProt Q61026 721-1121, looked up)
chain: STAPGSEVTVKQEPASPKKKENALLRYLLDKDDTKDIGLPEITPKLERLDSKTDPASNTKLIAMKTVKEEVSFEPSDQPGSELDNLEEILDDLQNSQLPQLFPDTRPGAPTGSVDKQAIINDLMQLTADSSPVPPAGAQKAALRMSQSTFNNPRPGQLGRLLPNQNLPLDITLQSPTGAGPFPPIRNSSPYSVIPQPGMMGNQGMLGSQGNLGNNSTGMIGSSTSRPSMPSGEWAPQSPAVRVTCAATTGAMNRPVQGGMIRNPTASIPMRANSQPGQRQMLQSQVMNIGPSELEMNMGGPQYNQQQAPPNQTAPWPESILPIDQASFASQNRQPFGSSPDDLLCPHPAAESPSDEGALLDQLYLALRNFDGLEEIDRALGIPELVSQSQAVDAEQFSSQE
notes: not shown: glutathione-S-transferase (GST) from the pGEX vector
Take B1: the binding result with hTRβ1 E457K, full-length is on record as “no binding”; in the assay with hTRβ1 L454R, full-length, “no binding”.
